The results in this text go back to patent US20210388110A1 (published 2021).

The target of the assay is T1, soluble human GPC3 (human, UniProt P51654 25-563, limits assumed).
T1 construct: soluble human GPC3 as analyte; also called glypican 3
The assay is described as follows: SPR (Biacore), soluble human GPC3.

T1 sequence (P51654 other isoform, or with tags, fused parts or gaps limits assumed, form in doubt): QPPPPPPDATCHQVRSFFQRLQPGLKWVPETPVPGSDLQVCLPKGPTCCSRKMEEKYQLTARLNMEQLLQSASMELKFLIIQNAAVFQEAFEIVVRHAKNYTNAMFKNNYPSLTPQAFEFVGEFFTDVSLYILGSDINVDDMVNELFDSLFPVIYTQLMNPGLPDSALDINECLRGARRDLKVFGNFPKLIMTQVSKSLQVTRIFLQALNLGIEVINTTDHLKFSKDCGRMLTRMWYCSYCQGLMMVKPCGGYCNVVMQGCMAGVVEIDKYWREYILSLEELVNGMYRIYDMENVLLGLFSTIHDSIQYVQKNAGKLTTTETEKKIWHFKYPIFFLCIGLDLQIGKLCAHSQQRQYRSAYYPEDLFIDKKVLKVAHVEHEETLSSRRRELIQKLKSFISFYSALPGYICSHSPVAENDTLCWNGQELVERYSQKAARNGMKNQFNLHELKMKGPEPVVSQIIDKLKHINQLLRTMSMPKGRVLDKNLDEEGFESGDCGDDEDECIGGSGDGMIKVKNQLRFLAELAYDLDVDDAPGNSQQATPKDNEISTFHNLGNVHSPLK

B1: H0610-G1dh/none-Hi-Kn010G3/L0000-k0 (antibody, human IgG1, kappa)
heavy: not shown
chain: EPKSSDKTHTCPPCPAPELLGGPSVFLFPPKPKDTLMISRTPEVTCVVVDVSHEDPEVKFNWYVDGVEVHNAKTKPREEQYNSTYRVVSVLTVLHQDWLNGKEYKCKVSNKALPAPIEKTISKAKGQPREPQVCTLPPSRDELTKNQVSLWCLVKGFYPSDIAVEWESNGQPENNYKTTPPVLDSDGSFFLYSKLTVDKSRWQQGNVFSCSVMHEALHNRYTQKSLSLSP
light: DIVMTQSPLSLPVTPGEPASISCRSSQSLVHSNRNTYLHWYQQKPGQAPRLLIYKVSNRFSGVPDRFSGSGSGTDFTLKISRVEAEDVGVYYCGQGTQVPYTFGQGTKLEIKRTVAAPSVFIFPPSDEQLKSGTASVVCLLNNFYPREAKVQWKVDNALQSGNSQESVTEQDSKDSTYSLSSTLTLSKADYEKHKVYACEVTHQGLSSPVTKSFNRGEC
notes: single-arm (one Fab)
B1 showed a Kd of 3.97 nM.

B2: GCH014-G1dh/none-Hi-Kn010G3/L0000-k0 (antibody, human IgG1, kappa)
heavy: not shown
chain: EPKSSDKTHTCPPCPAPELLGGPSVFLFPPKPKDTLMISRTPEVTCVVVDVSHEDPEVKFNWYVDGVEVHNAKTKPREEQYNSTYRVVSVLTVLHQDWLNGKEYKCKVSNKALPAPIEKTISKAKGQPREPQVCTLPPSRDELTKNQVSLWCLVKGFYPSDIAVEWESNGQPENNYKTTPPVLDSDGSFFLYSKLTVDKSRWQQGNVFSCSVMHEALHNRYTQKSLSLSP
light: DIVMTQSPLSLPVTPGEPASISCRSSQSLVHSNRNTYLHWYQQKPGQAPRLLIYKVSNRFSGVPDRFSGSGSGTDFTLKISRVEAEDVGVYYCGQGTQVPYTFGQGTKLEIKRTVAAPSVFIFPPSDEQLKSGTASVVCLLNNFYPREAKVQWKVDNALQSGNSQESVTEQDSKDSTYSLSSTLTLSKADYEKHKVYACEVTHQGLSSPVTKSFNRGEC
notes: single-arm (one Fab)
The molecule B2 displayed a Kd of 4.2 nM.

B3: GCH007-G1dh/none-Hi-Kn010G3/L0000-k0 (antibody, human IgG1, kappa)
heavy: not shown
chain: EPKSSDKTHTCPPCPAPELLGGPSVFLFPPKPKDTLMISRTPEVTCVVVDVSHEDPEVKFNWYVDGVEVHNAKTKPREEQYNSTYRVVSVLTVLHQDWLNGKEYKCKVSNKALPAPIEKTISKAKGQPREPQVCTLPPSRDELTKNQVSLWCLVKGFYPSDIAVEWESNGQPENNYKTTPPVLDSDGSFFLYSKLTVDKSRWQQGNVFSCSVMHEALHNRYTQKSLSLSP
light: DIVMTQSPLSLPVTPGEPASISCRSSQSLVHSNRNTYLHWYQQKPGQAPRLLIYKVSNRFSGVPDRFSGSGSGTDFTLKISRVEAEDVGVYYCGQGTQVPYTFGQGTKLEIKRTVAAPSVFIFPPSDEQLKSGTASVVCLLNNFYPREAKVQWKVDNALQSGNSQESVTEQDSKDSTYSLSSTLTLSKADYEKHKVYACEVTHQGLSSPVTKSFNRGEC
notes: single-arm (one Fab)
For B3, the affinity, expressed as Kd, was 4.93 nM.

B4: GCH027-G1dh/none-Hi-Kn010G3/L0000-k0 (antibody, human IgG1, kappa)
heavy: not shown
chain: EPKSSDKTHTCPPCPAPELLGGPSVFLFPPKPKDTLMISRTPEVTCVVVDVSHEDPEVKFNWYVDGVEVHNAKTKPREEQYNSTYRVVSVLTVLHQDWLNGKEYKCKVSNKALPAPIEKTISKAKGQPREPQVCTLPPSRDELTKNQVSLWCLVKGFYPSDIAVEWESNGQPENNYKTTPPVLDSDGSFFLYSKLTVDKSRWQQGNVFSCSVMHEALHNRYTQKSLSLSP
light: DIVMTQSPLSLPVTPGEPASISCRSSQSLVHSNRNTYLHWYQQKPGQAPRLLIYKVSNRFSGVPDRFSGSGSGTDFTLKISRVEAEDVGVYYCGQGTQVPYTFGQGTKLEIKRTVAAPSVFIFPPSDEQLKSGTASVVCLLNNFYPREAKVQWKVDNALQSGNSQESVTEQDSKDSTYSLSSTLTLSKADYEKHKVYACEVTHQGLSSPVTKSFNRGEC
notes: single-arm (one Fab)
In the case of B4, binding was characterised by a dissociation constant (Kd) of 3.83 nM.

B5: GCH010-G1dh/none-Hi-Kn010G3/L0000-k0 (antibody, human IgG1, kappa)
heavy: not shown
chain: EPKSSDKTHTCPPCPAPELLGGPSVFLFPPKPKDTLMISRTPEVTCVVVDVSHEDPEVKFNWYVDGVEVHNAKTKPREEQYNSTYRVVSVLTVLHQDWLNGKEYKCKVSNKALPAPIEKTISKAKGQPREPQVCTLPPSRDELTKNQVSLWCLVKGFYPSDIAVEWESNGQPENNYKTTPPVLDSDGSFFLYSKLTVDKSRWQQGNVFSCSVMHEALHNRYTQKSLSLSP
light: DIVMTQSPLSLPVTPGEPASISCRSSQSLVHSNRNTYLHWYQQKPGQAPRLLIYKVSNRFSGVPDRFSGSGSGTDFTLKISRVEAEDVGVYYCGQGTQVPYTFGQGTKLEIKRTVAAPSVFIFPPSDEQLKSGTASVVCLLNNFYPREAKVQWKVDNALQSGNSQESVTEQDSKDSTYSLSSTLTLSKADYEKHKVYACEVTHQGLSSPVTKSFNRGEC
notes: single-arm (one Fab)
B5 came in with a Kd of 4.12 nM.

B6: GCH015-G1dh/none-Hi-Kn010G3/L0000-k0 (antibody, human IgG1, kappa)
heavy: not shown
chain: EPKSSDKTHTCPPCPAPELLGGPSVFLFPPKPKDTLMISRTPEVTCVVVDVSHEDPEVKFNWYVDGVEVHNAKTKPREEQYNSTYRVVSVLTVLHQDWLNGKEYKCKVSNKALPAPIEKTISKAKGQPREPQVCTLPPSRDELTKNQVSLWCLVKGFYPSDIAVEWESNGQPENNYKTTPPVLDSDGSFFLYSKLTVDKSRWQQGNVFSCSVMHEALHNRYTQKSLSLSP
light: DIVMTQSPLSLPVTPGEPASISCRSSQSLVHSNRNTYLHWYQQKPGQAPRLLIYKVSNRFSGVPDRFSGSGSGTDFTLKISRVEAEDVGVYYCGQGTQVPYTFGQGTKLEIKRTVAAPSVFIFPPSDEQLKSGTASVVCLLNNFYPREAKVQWKVDNALQSGNSQESVTEQDSKDSTYSLSSTLTLSKADYEKHKVYACEVTHQGLSSPVTKSFNRGEC
notes: single-arm (one Fab)
As to B6, the Kd was found to be 4.14 nM.

B7: GCH016-G1dh/none-Hi-Kn010G3/L0000-k0 (antibody, human IgG1, kappa)
heavy: not shown
chain: EPKSSDKTHTCPPCPAPELLGGPSVFLFPPKPKDTLMISRTPEVTCVVVDVSHEDPEVKFNWYVDGVEVHNAKTKPREEQYNSTYRVVSVLTVLHQDWLNGKEYKCKVSNKALPAPIEKTISKAKGQPREPQVCTLPPSRDELTKNQVSLWCLVKGFYPSDIAVEWESNGQPENNYKTTPPVLDSDGSFFLYSKLTVDKSRWQQGNVFSCSVMHEALHNRYTQKSLSLSP
light: DIVMTQSPLSLPVTPGEPASISCRSSQSLVHSNRNTYLHWYQQKPGQAPRLLIYKVSNRFSGVPDRFSGSGSGTDFTLKISRVEAEDVGVYYCGQGTQVPYTFGQGTKLEIKRTVAAPSVFIFPPSDEQLKSGTASVVCLLNNFYPREAKVQWKVDNALQSGNSQESVTEQDSKDSTYSLSSTLTLSKADYEKHKVYACEVTHQGLSSPVTKSFNRGEC
notes: single-arm (one Fab)
The molecule B7 came in with a Kd of 4.59 nM.

B8: GCH025-G1dh/none-Hi-Kn010G3/L0204-k0 (antibody, human IgG1, kappa)
heavy: not shown
chain: EPKSSDKTHTCPPCPAPELLGGPSVFLFPPKPKDTLMISRTPEVTCVVVDVSHEDPEVKFNWYVDGVEVHNAKTKPREEQYNSTYRVVSVLTVLHQDWLNGKEYKCKVSNKALPAPIEKTISKAKGQPREPQVCTLPPSRDELTKNQVSLWCLVKGFYPSDIAVEWESNGQPENNYKTTPPVLDSDGSFFLYSKLTVDKSRWQQGNVFSCSVMHEALHNRYTQKSLSLSP
light: DIVMTQSPLSLPVTPGEPASISCRSSQSPVHSNRNTYLHWYQQKPGQAPRLLIYKVSNRFRGVPDRFSGSGSGTDFTLKISRVEAEDVGVYYCGQGTQVPYTFGQGTKLEIKRTVAAPSVFIFPPSDEQLKSGTASVVCLLNNFYPREAKVQWKVDNALQSGNSQESVTEQDSKDSTYSLSSTLTLSKADYEKHKVYACEVTHQGLSSPVTKSFNRGEC
notes: single-arm (one Fab)
B8 displayed a Kd of 0.67 nM.

B9: GCH019-G1dh/none-Hi-Kn010G3/L0000-k0 (antibody, human IgG1, kappa)
heavy: not shown
chain: EPKSSDKTHTCPPCPAPELLGGPSVFLFPPKPKDTLMISRTPEVTCVVVDVSHEDPEVKFNWYVDGVEVHNAKTKPREEQYNSTYRVVSVLTVLHQDWLNGKEYKCKVSNKALPAPIEKTISKAKGQPREPQVCTLPPSRDELTKNQVSLWCLVKGFYPSDIAVEWESNGQPENNYKTTPPVLDSDGSFFLYSKLTVDKSRWQQGNVFSCSVMHEALHNRYTQKSLSLSP
light: DIVMTQSPLSLPVTPGEPASISCRSSQSLVHSNRNTYLHWYQQKPGQAPRLLIYKVSNRFSGVPDRFSGSGSGTDFTLKISRVEAEDVGVYYCGQGTQVPYTFGQGTKLEIKRTVAAPSVFIFPPSDEQLKSGTASVVCLLNNFYPREAKVQWKVDNALQSGNSQESVTEQDSKDSTYSLSSTLTLSKADYEKHKVYACEVTHQGLSSPVTKSFNRGEC
notes: single-arm (one Fab)
Take B9: the affinity, expressed as Kd, was 4.36 nM.

B10: GCH013-G1dh/none-Hi-Kn010G3/L0000-k0 (antibody, human IgG1, kappa)
heavy: not shown
chain: EPKSSDKTHTCPPCPAPELLGGPSVFLFPPKPKDTLMISRTPEVTCVVVDVSHEDPEVKFNWYVDGVEVHNAKTKPREEQYNSTYRVVSVLTVLHQDWLNGKEYKCKVSNKALPAPIEKTISKAKGQPREPQVCTLPPSRDELTKNQVSLWCLVKGFYPSDIAVEWESNGQPENNYKTTPPVLDSDGSFFLYSKLTVDKSRWQQGNVFSCSVMHEALHNRYTQKSLSLSP
light: DIVMTQSPLSLPVTPGEPASISCRSSQSLVHSNRNTYLHWYQQKPGQAPRLLIYKVSNRFSGVPDRFSGSGSGTDFTLKISRVEAEDVGVYYCGQGTQVPYTFGQGTKLEIKRTVAAPSVFIFPPSDEQLKSGTASVVCLLNNFYPREAKVQWKVDNALQSGNSQESVTEQDSKDSTYSLSSTLTLSKADYEKHKVYACEVTHQGLSSPVTKSFNRGEC
notes: single-arm (one Fab)
In turn, B10 returned a Kd of 4.44 nM.

B11: GCH029-G1dh/none-Hi-Kn010G3/L0000-k0 (antibody, human IgG1, kappa)
heavy: not shown
chain: EPKSSDKTHTCPPCPAPELLGGPSVFLFPPKPKDTLMISRTPEVTCVVVDVSHEDPEVKFNWYVDGVEVHNAKTKPREEQYNSTYRVVSVLTVLHQDWLNGKEYKCKVSNKALPAPIEKTISKAKGQPREPQVCTLPPSRDELTKNQVSLWCLVKGFYPSDIAVEWESNGQPENNYKTTPPVLDSDGSFFLYSKLTVDKSRWQQGNVFSCSVMHEALHNRYTQKSLSLSP
light: DIVMTQSPLSLPVTPGEPASISCRSSQSLVHSNRNTYLHWYQQKPGQAPRLLIYKVSNRFSGVPDRFSGSGSGTDFTLKISRVEAEDVGVYYCGQGTQVPYTFGQGTKLEIKRTVAAPSVFIFPPSDEQLKSGTASVVCLLNNFYPREAKVQWKVDNALQSGNSQESVTEQDSKDSTYSLSSTLTLSKADYEKHKVYACEVTHQGLSSPVTKSFNRGEC
notes: single-arm (one Fab)
Molecule B11 showed a Kd of 5.01 nM.

B12: GCH006-G1dh/none-Hi-Kn010G3/L0000-k0 (antibody, human IgG1, kappa)
heavy: not shown
chain: EPKSSDKTHTCPPCPAPELLGGPSVFLFPPKPKDTLMISRTPEVTCVVVDVSHEDPEVKFNWYVDGVEVHNAKTKPREEQYNSTYRVVSVLTVLHQDWLNGKEYKCKVSNKALPAPIEKTISKAKGQPREPQVCTLPPSRDELTKNQVSLWCLVKGFYPSDIAVEWESNGQPENNYKTTPPVLDSDGSFFLYSKLTVDKSRWQQGNVFSCSVMHEALHNRYTQKSLSLSP
light: DIVMTQSPLSLPVTPGEPASISCRSSQSLVHSNRNTYLHWYQQKPGQAPRLLIYKVSNRFSGVPDRFSGSGSGTDFTLKISRVEAEDVGVYYCGQGTQVPYTFGQGTKLEIKRTVAAPSVFIFPPSDEQLKSGTASVVCLLNNFYPREAKVQWKVDNALQSGNSQESVTEQDSKDSTYSLSSTLTLSKADYEKHKVYACEVTHQGLSSPVTKSFNRGEC
notes: single-arm (one Fab)
Molecule B12 displayed a Kd of 4.06 nM.
